Results as given in publication PMC5971111 (Nature structural & molecular biology, 2018).

T1: Sec3 (S. cerevisiae, UniProt P33332 1-1336)
T1 sequence: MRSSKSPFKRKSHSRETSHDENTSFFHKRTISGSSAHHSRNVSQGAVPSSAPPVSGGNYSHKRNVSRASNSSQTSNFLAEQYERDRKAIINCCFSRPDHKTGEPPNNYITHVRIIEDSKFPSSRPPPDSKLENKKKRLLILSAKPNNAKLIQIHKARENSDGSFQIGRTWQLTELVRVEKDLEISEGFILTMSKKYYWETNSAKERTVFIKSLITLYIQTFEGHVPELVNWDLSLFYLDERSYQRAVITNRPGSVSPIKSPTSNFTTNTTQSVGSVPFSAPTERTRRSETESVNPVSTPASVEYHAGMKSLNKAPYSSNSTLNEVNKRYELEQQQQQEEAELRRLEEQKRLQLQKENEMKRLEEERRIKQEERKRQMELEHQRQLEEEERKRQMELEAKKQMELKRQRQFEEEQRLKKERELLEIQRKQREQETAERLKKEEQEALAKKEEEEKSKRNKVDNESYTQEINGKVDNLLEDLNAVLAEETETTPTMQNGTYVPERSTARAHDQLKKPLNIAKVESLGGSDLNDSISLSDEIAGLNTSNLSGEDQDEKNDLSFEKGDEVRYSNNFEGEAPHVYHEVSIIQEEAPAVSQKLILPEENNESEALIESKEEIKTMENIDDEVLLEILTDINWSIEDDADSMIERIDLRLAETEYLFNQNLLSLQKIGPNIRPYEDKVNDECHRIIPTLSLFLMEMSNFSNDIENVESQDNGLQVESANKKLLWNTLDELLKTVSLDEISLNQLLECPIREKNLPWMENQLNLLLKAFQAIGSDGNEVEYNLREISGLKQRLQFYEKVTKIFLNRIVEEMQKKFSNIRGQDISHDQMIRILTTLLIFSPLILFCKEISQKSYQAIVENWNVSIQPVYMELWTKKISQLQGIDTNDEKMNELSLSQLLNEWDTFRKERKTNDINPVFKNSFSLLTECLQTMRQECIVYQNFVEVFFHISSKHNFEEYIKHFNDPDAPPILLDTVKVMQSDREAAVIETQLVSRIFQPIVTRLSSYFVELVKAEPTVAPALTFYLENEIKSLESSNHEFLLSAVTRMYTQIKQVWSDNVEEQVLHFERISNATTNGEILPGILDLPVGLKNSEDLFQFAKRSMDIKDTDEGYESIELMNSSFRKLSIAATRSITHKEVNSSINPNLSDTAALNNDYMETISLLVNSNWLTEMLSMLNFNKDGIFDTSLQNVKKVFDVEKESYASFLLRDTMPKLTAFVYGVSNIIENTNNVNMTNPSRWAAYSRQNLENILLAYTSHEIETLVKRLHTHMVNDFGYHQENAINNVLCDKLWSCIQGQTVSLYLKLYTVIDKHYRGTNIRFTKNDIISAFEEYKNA

B1: Sec8 (natural protein)
chain: MDYLKPAQKGRRRGLSINSLSETQQSAMNSSLDHLQNDLNRINLQWNRILSDNTNPLELALAFLDDTSVGLGHRYEEFNQLKSQIGSHLQDVVNEHSQVFNTNVASYGKAVSSIMQAQEQTLNLKNCLKEANEKITTDKGSLQELNDNNLKYTKMIDVLVNIEELLQIPEKIEENIRKENFHQVQILLERGFILMNNKSLKTVEILKPINQQLELQEHLLFNNLIEEIHDIMYSKSNKTNFTRVTNNDIFKIISISHNGFTSLENYLYNIVNIDIMEHSKTINKNLEQFIHDQSLNKGNIMLQENAATQAPLAPSRNQENEGFNRIGFLLKTINNINKLPVAFNIITERAKEEIHNIIVKSTESIRSKHPSLLKMATSLKNDNHFGLPVQDILSIILRECFWEIFLKLLYAIQCHRAIFEMSNILQPTSSAKPAFKFNKIWGKLLDEIELLLVRYINDPELISSNNGSIKPINGATNNAPTLPKRKNPKIFSLEYNIEDNSSVKDQAFELKALLKDIFPGFSVSSNMDLDSIYVKDESFEQDEPLVPPSVFNMKVILDPFLLFTQSTSTIVPSVLTQNTISSLTFFDDYMNKSFLPKIQMTMDYLFTVEVESNNPYALELSDENHNIFKTALDFQRLFYNLLNVFNTANTFREKISYCILDLLNHFYNYYLGLFNSLIGTSDRHLTRKIITAWLQNGILMDQEQKILNGDETLFHEESIELFKEIPHFYQAGKGLSKSDLFNNLTLDTILQFSASVLWILNWLPGLKKAINIDEVSQEPMLDADRLRSSWTFSESMDLNYSNPSSSPNSLGNLKILLDDKASKKFDETIDGFKTLKFKLITILRFNIRALCIYDIGSFFQNTKIWNMDVGSIELDQNIASLISELRRTESKLKQQLPEKEKNSIFIGLDIVNNYALIKGAKSIKVLNHNGIKKMLRNVNVLQHAYRNLSSEPSKINMNVTMNFYSLCGSSEAELFEYIKDNELPHCSVEDLKTILRLQFSEEMHRQLKRQSTSSTKGSIKPSNKRYTEALEKLSNLEKEQSKEGARTKIGKLKSKLNAVHTANEK

Experiments:
Sec3 = target: T1, Sec3; test: […]
Sec8 = target: B1; test: […]

| Binder | binding result (Sec3) | binding result (Sec8) |
| --- | --- | --- |
| Sec5 (natural protein) MDRFQIGDEQLLRFYQLKTINPTHSWAQDSSKLNNEEATSNELGVETSFDILKDFKYGNQISIDKESRAYLNDESLSYIRDPLNGQEMSKELQHLPNDSMRLNYLVNSKQFNVKAFLRDMHKQDSFNDLNNSLDRLDSDIQDQSIHLKQLVGKNFTKYVKIKNKLDQIYKEFDEKTNEKNQCDSPKENQINVESLNKKVDEVIRTTTFKLKPLMDNYQKILNYQATKKFIELNKFYFNLPKSLKRCLTNNDFNEFIIEYSKGLTLRRRFNQSSDASQSLVIKRIWTQIENLLVTYKDLIWNSLINSNFNIDQPQETILSLFSKLLNLENFINNNQRESESGNKNTTSSSNENPILRWMSIKMNGFQNELNELSGHMISKIIHSQRLILQNNTNQDKSQGCVELSYYLKINQLFQIISDTGKDSEGLKSTVEPNKVNTISGTSYLNLNCQPSSQGLTDSPTIIEMWLLILKYINDLWKICDQFIEFWEHIEKFLDGTYQNSIINEKRKENILIGDSNIIESYQKSLILKEEQINEVRLKGEEFITSVSQNLISFFTSSQSSLPSSLKDSTGDITRSNKDSGSPLDYGFIPPNCNGLSCLRYLPKIVEPILKFSTELAQLNITTNGITICRNTLSTIINRCVGAISSTKLRDISNFYQLENWQVYETVTFSSKSQDSSKNLTFEYGVTQFPEIVTSFQEVSIKTTRDLLFAYEKLPIINGISVVSYPSKQLLTGIEIQQIISMEAVLEAILKNAAKDKDNPRNSHTILTLTNLQYFRECAFPNILQYFDDAFEWNLASKNLELFSLLSKMESSIFGNYLSDLKINLRDTLEEKFHEINWPMYTSNSFRVGDYIIEALMILIVVHSECFRIGPQLIHKILIETQIFIARYLFEAFKPYVGNLSNDGSLQIIVDLEFFQKVMGPLLEKDTEATLRACLQNCFQNDTNRLQKCINEINPIVSANLKRTAIQFAAFS | binds | binds |
| Sec15 (natural protein) MDQEGQPLLSKDFQQVLLATASGNNSSWTERAVLNNESTDAVKHEPALGQNDVFDLDPLSFDKWVPFLRRALDKNQLDPVIDELENSIEDNFQGLELQLLQDSQMNDKLETSIDEIANIQGMVQDTLSSEISKFQIRLSESANELIVKKQMYVNNKKISLKISEATILITKVVRILELSSKCQELITERKFFKVLQNLDSLEKLYLQEFKNYNFQFLIEIYNSIPFLQKVTKDECINLIRNSLNLNLGKNLIKVGQEFVAIYENELLPQWLETRSKMKLTNFKFNSPIEISMRDESFLAKLNLGEFFQLDDFHDSIMIFQNLNELSVLSGEFNKEYELRKTKLMYPLIWKKNKTAAYQMDSLLRGTGTTPGSTAHDVSTDDPFTQSLSLHFLQDYFLKILGFLLYDINLNKATEFILVDNNYNSTNEFWDGLMDRLSPYLSYFIDEKLKTEEDMIKLKDFLCIYVAILENFKLNIEPLYKILVSIFEKFCSVSLRAFDDEFQILLNDDDFMPLSINDKTLYEKVLKICWMKEGEHLSLPDPTNGEPFAVTLPFSPLYPMTCTLAKKTYSKITAFLSIFYRHELHTLNNILVKTMDDIFNDIVNKKIRSKLESTSREEIAQILVNLDYFIIAAKEFSNFMTRENILQNPDMEIRLSSIKYLAESRKLAETKLIELIDSKISDILETIEIDWQITEVRQDPDISIIDLAQFLEMMFASTLQNLPYSVQTLLIFREFDSLTRQFMGLLLHDTPSTITHESIMNFEVDVNYLESIIPRIFPSTPGTIDSNGYQSPMTPSTPTFPNANGVDAPTLFENNIKSLEATFMELKQCIELLKTQGKDYNEPEIRLRKYSRIRQEDAALLLSKIQHFVSSVEGANGDDTSVMDSSSIFNSESASVIDSNTSRIAKFFNRR |  | binds |
| B1 | binds |  |
